Earlier results on 14 substances are cited in paper PMC7772776.

The target of series [1] is Cys29 (UniProt position 108, GSCGSCWAFGA).
Series [2] concerns the target Cys124 (UniProt position 125, HPGDFCADAQG).
Series [3] has as its target Cys87 (UniProt position 87, RLGRICLDVLK).
In series [4] the target is Cys145 (UniProt position 145, PILIPCHRVVC).
Series [5] addresses Cys283 (UniProt position 283, GYVLTCPSNLG).
The target of series [6] is Cys125 (UniProt position 126, PGDFGCDAQGA).
Series [7] deals with Cys25 (UniProt position 157, GSCGSCWAFSA).
For series [8], the target named is Cys25 (UniProt position 158, GSCGSCWAFSA).
In series [9] the target is Cys72 (UniProt position 72, VFGMGCFWGAE).
Series [10] has as its target Cys46 (UniProt position 47, DFTFVCPTELG).
Series [11] has as its target Cys283 (UniProt position 283, GYVLTCPANLG).
Series [12] concerns the target Cys102 (UniProt position 102, KFLTPCYHPNV).
The target of series [13] is Cys88 (UniProt position 88, ADGSICLDILQ).

Regarding Cathepsin B (Rattus norvegicus), the pKa (commonly the negative logarithm of the acid dissociation constant) in series [1] is 3.6.

“Myoglobin G124C (Mb G124C) (Physeter macrocephalus (sperm whale); G124C)”: the pKa in series [2] was 6.5.

For “Ubiquitin-conjugating enzyme Ubc13 (Saccharomyces cerevisiae)”, the pKa in series [3] is listed as 11.1.

For “O6-alkylguanine-DNA alkyltransferase (AGT) (Homo sapiens)”, the pKa in series [4] is recorded as 5.3.

Turning to “Muscle creatine kinase (HMCK) (Homo sapiens)”, the pKa in series [5] is on record as 5.6.

“Myoglobin A125C (Mb A125C) (Physeter macrocephalus (sperm whale); A125C)”: in series [6], the pKa was 8.4.

On to “Papaya protease omega (caricain) (Carica papaya)”, for which, in series [7], the pKa was 2.9.

“Papain (papaya proteinase I) (Carica papaya)”: the pKa in [8] is 3.3.

“Methionine sulfoxide reductase A E115Q (MmsrA E115Q) (Mus musculus; E115Q)”: the pKa in series [9] is given as 8.2.

Consider “Alkyl hydroperoxide reductase C (AhpC) (Salmonella (article gives genus only; Salmonella typhimurium inferred))”, for which, in series [10], the pKa was 5.9.

Consider “Muscle creatine kinase S285A (HMCK S285A) (Homo sapiens; S285A)”, for which the pKa in [11] is listed as 6.7.

Take “Ubiquitin-conjugating enzyme UbcH10 C114S (Homo sapiens; C114S)”: the pKa in [12] is reported as 10.9.

For the substance “Ubiquitin-conjugating enzyme E2 B (Ubc2b; 'Ubc2' in Table 1) (Homo sapiens)”, the pKa in series [13] is 10.2.

As for “Methionine sulfoxide reductase A (MmsrA) (Mus musculus)”, the pKa in series [9] was 7.2.
